This note sets out measurements from US20260125454A1 (SHANGHAI JUNSHI BIOSCIENCES, published 2026).

The experiment deals with T1, Biotin-huCGRPaSA (human, not fully specified; biotin (position not given)).
T1 construct: exact construct ('aSA') not explained; also called Biotin CGRPaSA; full-length (1-37) CGRP
T1 peptide: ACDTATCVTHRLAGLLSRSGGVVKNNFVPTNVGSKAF
The experiment can be described thus: ELISA, supernatant; relative to chimeric C245. The method, boiled down:
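Plates coated with biotin-CGRPaSA at 1.0 μg/mL (90 min, 37°C) and blocked with 2% BSA. Humanized antibodies and chimeric C245 reference, 2.5-fold serial dilutions from 1000 ng/mL, bound 60 min at 37°C. Detection by HRP anti-human IgG (Fc), TMB 15 min, read at 450/620 nm.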
(In general: An ELISA detects its analyte on a solid surface through an enzyme-linked reagent.)

Residue numbers refer to the chain shown, from its start.

B1: hu108 (antibody, V domains shown)
VH: QVQLVQSGAEVKKPGASVKVSCKASGYTFTDYNMHWVRQAPGQGLEWMGNIYPYNGGTVYNQKFNNRVTLTVDTSSSTAYMELSRLRSDDTAVYYCAREGLGGYWGQGTLVTVSS
VL: DIQLTQSPSFLSASVGDRVTITCKASQNIDYDGYAYLNWYQQKPGKAPKVLIYSVFNLESGVPSRFSGSGSGTEFTLTISSLQPEDFATYYCQQSNEFPYTFGQGTKLEIK
notes: 2B8 HC1-1/1A2 LC2-4
In the case of B1, the “Relative binding activity, %” value is 70%.

B2: hu218 (antibody, V domains shown)
VH: B1 VH with N50Y, G57H, N65R, S84R, R85S
VL: DVQLTQSPSFLSASVGDRVTITCQASQNIDGNTYMNWYQQKPGKAPKVLIYSIFNLESGVPSRFSGSGSGTEFTLTISSLQPEDFATYYCQQSNDYPYTFGQGTKLEIK
notes: 3H10 HC-2/2B8 LC2-2
Consider B2, for which the “Relative binding activity, %” value was 24%.

B3: hu147 (antibody, V domains shown)
VH: B1 VH with A24T, G44R, N50Y, Y52S, V59A, N65K, N66F, R85S, D89E
VL: B1 VL
notes: 3E5 HC-1/1A2 LC2-4
Turning to B3, the “Relative binding activity, %” value worked out at 111%.

B4: hu221 (antibody, V domains shown)
VH: B1 VH with N50Y, G57H, N65R, S84R, R85S
VL: B1 VL with F10S, D32G, A35S, L37M, E74D, F98A
notes: 3H10 HC-2/3H10 LC2-2
In the case of B4, the “Relative binding activity, %” value stood at 24%.

B5: hu186 (antibody, V domains shown)
VH: B1 VH with A24T, G44R, N50Y, Y52S, G56A, V59A, N65K, N66F, R85S, D89E
VL: B1 VL
notes: 3E5 HC-4/1A2 LC2-4
In the case of B5, the “Relative binding activity, %” value worked out at 53%.

B6: hu208 (antibody, V domains shown)
VH: B1 VH with N50Y, G57H, N65R, L70M, S84R, R85S, R98K
VL: B1 VL with F10S, D32G, A35S, L37M, E74D, F98A
notes: 3H10 HC-1/3H10 LC2-2
As for B6, the “Relative binding activity, %” value stood at 15%.

B7: hu199 (antibody, V domains shown)
VH: B1 VH with N50Y, G57H, N65R, L70M, S84R, R85S, R98K
VL: B1 VL
notes: 3H10 HC-1/1A2 LC2-4
Consider B7, for which the “Relative binding activity, %” value came out at 41%.

B8: hu143 (antibody, V domains shown)
VH: B1 VH with G56A
VL: B1 VL with F10S, D32G, A35S, L37M, E74D, F98A
notes: 2B8 HC1-3/3H10 LC2-2
Take B8: the “Relative binding activity, %” value was 41%.

B9: hu134 (antibody, V domains shown)
VH: B1 VH with G56A
VL: B1 VL
notes: 2B8 HC1-3/1A2 LC2-4
In the case of B9, the “Relative binding activity, %” value was determined as 86%.

B10: hu121 (antibody, V domains shown)
VH: B1 VH with S84R, R85S
VL: B1 VL
notes: 2B8 HC1-2/1A2 LC2-4
For the molecule B10, the “Relative binding activity, %” value was 49%.

B11: hu117 (antibody, V domains shown)
VH: B1 VH
VL: B1 VL with F10S, D32G, A35S, L37M, E74D, F98A
notes: 2B8 HC1-1/3H10 LC2-2
Regarding B11, the “Relative binding activity, %” value came out at 36%.

B12: hu10 (antibody, V domains shown)
VH: B1 VH with N50Y, Y52F, G57V, T58A, Q62R, N65R, N66S, V72I, S84R, R85S
VL: B2 VL
notes: 1B2 HC-1/2B8 LC2-2
For the molecule B12, the “Relative binding activity, %” value was 14%.

B13: hu130 (antibody, V domains shown)
VH: B1 VH with S84R, R85S
VL: B1 VL with F10S, D32G, A35S, L37M, E74D, F98A
notes: 2B8 HC1-2/3H10 LC2-2
Consider B13, for which the “Relative binding activity, %” value worked out at 53%.

B14: hu160 (antibody, V domains shown)
VH: B1 VH with G44R, N50Y, Y52S, V59A, N65K, N66F, R85S, D89E
VL: B1 VL
notes: 3E5 HC-2/1A2 LC2-4
For the molecule B14, the “Relative binding activity, %” value amounted to 50%.

B15: hu173 (antibody, V domains shown)
VH: B1 VH with N50Y, Y52S, V59A, N65K, N66F, A92V
VL: B1 VL
notes: 3E5 HC-3/1A2 LC2-4
As to B15, the “Relative binding activity, %” value is 92%.
